Target: the molecule itself
Test: SEC

B1: His6-eVP40 (Ebola virus matrix protein VP40) (natural protein)
chain: MRRVILPTAPPEYMEAIYPVRSNSTIARGGNSNTGFLTPESVNGDTPSNPLRPIADDTIDHASHTPGSVSSAFILEAMVNVISGPKVLMKQIPIWLPLGVADQKTYSFDSTTAAIMLASYTITHFGKATNPLVRVNRLGPGIPDHPLRLLRIGNQAFLQEFVLPPVQLPQYFTFDLTALKLITQPLPAATWTDDTPTGSNGALRPGISFHPKLRPILLPNKSGKKGNSADLTSPEKIQAIMTSLQDFKIVPIDPTKNIMGIEVPETLVHKLTGKKVTSKNGQPIIPVLLPKYIGLDPVAPGDLTMVITQDCDTCHSPASLPAVIEK
- stoichiometry N: 2

From article PMC9638875 (EMBO Reports, 2022)
